From patent EP1073891B1, “METHOD OF PREDICTING RECEPTOR MODULATING ACTIVITY” (Duke University, priority 1998, dated 1999)

What was measured:
[1] = molecular target: T1, ERα (Homo sapiens, UniProt P03372); assay: Phage ELISA on plastic-immobilized ER, with or without estradiol, agonists or SERMs (Examples 1.3a, 1.4); type: binding; set-up: purchased PanVera Corporation, Madison, WI
T1 sequence (P03372 1-595): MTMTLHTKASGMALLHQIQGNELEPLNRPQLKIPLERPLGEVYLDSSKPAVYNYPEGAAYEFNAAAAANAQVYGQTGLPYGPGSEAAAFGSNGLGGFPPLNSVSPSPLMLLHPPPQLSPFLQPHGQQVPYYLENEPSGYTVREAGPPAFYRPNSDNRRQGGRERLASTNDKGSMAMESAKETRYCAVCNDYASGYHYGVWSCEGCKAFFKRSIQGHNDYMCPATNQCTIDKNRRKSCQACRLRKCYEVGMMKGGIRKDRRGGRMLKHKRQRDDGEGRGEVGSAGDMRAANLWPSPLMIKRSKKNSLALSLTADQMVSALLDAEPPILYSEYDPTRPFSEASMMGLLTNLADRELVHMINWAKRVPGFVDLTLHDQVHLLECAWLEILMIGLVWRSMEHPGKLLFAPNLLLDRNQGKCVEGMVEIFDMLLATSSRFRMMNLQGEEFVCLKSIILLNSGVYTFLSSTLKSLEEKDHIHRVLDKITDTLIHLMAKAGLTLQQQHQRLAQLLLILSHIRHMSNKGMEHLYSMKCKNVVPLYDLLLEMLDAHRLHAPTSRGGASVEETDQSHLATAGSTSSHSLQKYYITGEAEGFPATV
Source text: ER alpha (Panvera Corp.) was immobilized on Immulon 4 plastic plates (Dynatech) for the phage affinity selection as described in patent application Fowlkes, 09/050,359. Peptide sequences obtained for binding to the unliganded (unactivated) receptor are listed below (Table 1).
Phage expressing distinct peptide sequences were classified according to a number of different parameters.
The effect of agonists and SERMs on the binding of phage from each of the 5 classes described above was investigated.
The following fingerprints were identified (Table 6). The data are based on the relative change in binding (as determined by an increase or decrease in absorbance) compared to the unliganded receptor. The number of + or - signs indicates the degree and the direction of the change in signal; +/- indicates no significant change.

[2] = tested on: MCF-7 cell xenografts; assay: Growth of MCF-7 cell xenografts in A-thymic nude mice; type: in vivo
[3] = tested on: ER; type: cell-based
[4] = In vivo tissue pharmacology of antiestrogen (uterus, bone, cardiovascular system); conditions: assayed in vivo
[5] = molecular target: T1, ERα; type: binding; set-up: purchased PanVera Corporation, Madison, WI; conditions: Table 14, ERα and ERβ; progesterone 1 µM
Procedure: Oligonucleotides corresponding to the vitellogenin ERE, biotin-[…] (forward) and biotin-[…] (reverse), were synthesized by Genosys.
These assays were conducted by phage ELISA.
Res. Treat. […] Jordan, Pharmacological Rev. […] And Metab.
Bound phage were detected as described previously.

[6] = molecular target: T1, ERα; assay: Disruption of ERα transcriptional activity by peptide-Gal4DBD fusions, 3xERELuc reporter in HeLa cells (Examples 101.4, 101.7); type: cell-based
Procedure: HeLa cells were transfected with ERα expression plasmid (RST7ERα), 3xERELuc reporter, pCMVβgal along with different peptide-Gal4DBD fusion constructs. pM is the Gal4DBD control without peptide fusion. Luciferase activity was measured and normalized (Fig. 16). The ability of different peptides to disrupt ERα transcriptional activity correlates with the affinity of these peptides to ERα as measured in mammalian two-hybrid assays in [Figure 15(A)]. […] Two copies of LXXLL motifs interact synergistically to disrupt ER transcriptional activity. 2XF6: two copies of F6 peptide was constructed in tandem with a 54-amino acid spacing linker that has the same sequence as in that in between GRIP-1 NR box II and NR box III. F6G:Ga14DBD-F6 fusion with only one copy of F6 peptide plus the linker. Transient transfection was performed in HeLa cells with 3xERELuc, RST7ERα, pCMVβgal and increasing amount of Gal4DBD-peptide fusion constructs as indicated in the X-axis.
(§1) It contains the LXXLL motif. […] HeLa cells were transfected with either ERα or ERβ expression plasmids along with 3xERELuc reporter, pCMVβgal and peptide-DBD fusion constructs as indicated.

[7] = molecular target: T2, ERβ (Homo sapiens, UniProt Q92731); assay: Mammalian two-hybrid of LXXLL peptides with nuclear receptors (Example 101.6); type: cell-based; set-up: Full length receptors and selected peptides were expressed as VP16 and Gal4 DBD fusions, respectively; expressed in transfected cells; conditions: mammalian two-hybrid receptor panel
Source text: (§2) Plasmids: All the Gal4DBD-peptide fusions were constructed as follows: DNA sequences code for the peptides were excised from mBAX vector with Xhol and Xbal restriction enzymes and subcloned into pMsx vector derived from pM vector (Clontech) with a linker sequence to generate infram Sall and Nhel sites for cloning. VP16ER-a construct was generated by polymerase chain reaction (PCR) of full length human ER-α cDNA with primers containing ECoRI flanking both 5' and 3' ends. […]
(§3) The interactions between different LXXLL motifs and different nuclear receptors were assayed in a mammalian two-hybrid system (Fig. 18). Full length receptors and selected peptides were expressed as VP16 and Gal4 DBD fusions, respectively. The strength of the interactions was measured by the activity of the 5xGa14Luc3 reporter gene. […]
Target sequence in this assay (Q92731 whole entry, species assumed, the tested form may be a part): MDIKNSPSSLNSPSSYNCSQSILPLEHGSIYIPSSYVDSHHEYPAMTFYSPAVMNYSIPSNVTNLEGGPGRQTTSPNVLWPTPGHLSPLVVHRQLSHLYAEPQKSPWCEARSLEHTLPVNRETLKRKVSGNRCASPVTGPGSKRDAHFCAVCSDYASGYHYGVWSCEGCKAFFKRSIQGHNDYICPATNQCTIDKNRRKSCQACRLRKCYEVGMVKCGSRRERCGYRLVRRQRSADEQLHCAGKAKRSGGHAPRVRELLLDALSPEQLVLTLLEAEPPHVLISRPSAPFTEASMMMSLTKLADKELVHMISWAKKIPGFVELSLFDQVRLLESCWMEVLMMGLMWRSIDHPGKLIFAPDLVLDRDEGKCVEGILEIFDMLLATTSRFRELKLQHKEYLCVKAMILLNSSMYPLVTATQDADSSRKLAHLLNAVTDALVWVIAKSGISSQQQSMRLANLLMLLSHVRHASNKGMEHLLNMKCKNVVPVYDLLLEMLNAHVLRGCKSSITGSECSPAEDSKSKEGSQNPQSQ

[8] = molecular target: T3, RAR (Homo sapiens, UniProt P10276); assay: as above; type: cell-based; conditions: mammalian two-hybrid receptor panel
T3 construct: Full length receptors and selected peptides were expressed as VP16 and Gal4 DBD fusions, respectively; expressed in transfected cells; host or cells: mammalian cells
T3 sequence (P10276 1-462): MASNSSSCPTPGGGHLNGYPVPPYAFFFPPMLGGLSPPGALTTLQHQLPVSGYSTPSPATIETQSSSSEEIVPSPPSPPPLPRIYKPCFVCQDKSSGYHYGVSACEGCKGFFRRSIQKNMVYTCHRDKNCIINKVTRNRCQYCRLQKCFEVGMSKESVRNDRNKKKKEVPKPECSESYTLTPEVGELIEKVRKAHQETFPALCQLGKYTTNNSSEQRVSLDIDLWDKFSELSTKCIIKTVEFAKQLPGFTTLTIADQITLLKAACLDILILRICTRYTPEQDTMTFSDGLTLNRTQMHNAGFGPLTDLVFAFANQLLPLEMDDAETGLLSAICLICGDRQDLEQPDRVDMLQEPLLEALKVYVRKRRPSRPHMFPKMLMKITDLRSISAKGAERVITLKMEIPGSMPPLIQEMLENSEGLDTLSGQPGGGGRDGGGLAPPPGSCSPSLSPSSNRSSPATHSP
Source text: as §2, §3

[9] = molecular target: T4, TR (Homo sapiens, UniProt P10828); assay: as above; type: cell-based; conditions: mammalian two-hybrid receptor panel
T4 construct: Full length receptors and selected peptides were expressed as VP16 and Gal4 DBD fusions, respectively; expressed in transfected cells; host or cells: mammalian cells; the plasmid was a gift (D.D. More, Baylor College of Medicine)
T4 sequence (P10828 1-461): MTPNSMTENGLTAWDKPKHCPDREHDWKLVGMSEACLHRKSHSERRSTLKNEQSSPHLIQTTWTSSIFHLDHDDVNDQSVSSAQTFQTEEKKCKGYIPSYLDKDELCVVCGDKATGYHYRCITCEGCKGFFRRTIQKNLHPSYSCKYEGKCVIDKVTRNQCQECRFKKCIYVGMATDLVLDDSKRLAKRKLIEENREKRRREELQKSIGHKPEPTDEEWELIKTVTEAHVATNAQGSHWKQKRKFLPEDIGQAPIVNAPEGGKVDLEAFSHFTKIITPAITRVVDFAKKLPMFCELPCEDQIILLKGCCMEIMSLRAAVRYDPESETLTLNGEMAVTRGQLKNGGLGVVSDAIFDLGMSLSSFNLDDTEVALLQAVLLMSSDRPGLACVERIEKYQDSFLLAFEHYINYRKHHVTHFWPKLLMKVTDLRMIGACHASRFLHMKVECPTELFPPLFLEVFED
Source text: as §2, §3

[10] = molecular target: T2, ERβ; assay: Disruption of ERβ transcriptional activation by peptide-DBD fusions, 3xERELuc reporter in HeLa cells (Example 101.7); type: cell-based; conditions: 17β-estradiol
Source text: as §1
Target sequence in this assay (Q92731 whole entry, the tested form may be a part): as the sequence (Q92731 whole entry, species assumed, the tested form may be a part) above

[11] = molecular target: T5, full length ER (Homo sapiens, UniProt P03372); assay: Mapping of probe binding sites, phage ELISA on directly immobilized receptor
T5 construct: amino terminal domain (1-184) fused to GST, and the full length ER; purchased PanVera Corporation, Madison, WI
T5 sequence (P03372 1-595): T1 sequence (P03372 1-595)
Procedure: Assays were conducted using the format described in Example 2.3, except that the domains were directly immobilized on the plastic surface of the well. Assays were conducted as for phage ELISA (Ex. 2.3).

SSVTKKALTIAKDSR
binding of ER in presence of estradiol [1]: weak binders

CC/C(=C(\c1ccccc1)c1ccc(/C=C/C(=O)O)cc1)c1ccccc1 [GW5638]
growth of MCF-7 cell xenografts [2]: effectively inhibited | AF-1 and AF-2 agonist activity [3]: devoid of AF-1 and AF-2 agonist activity | inhibition of tamoxifen partial agonist activity ([3]; assayed in vitro): inhibits tamoxifen partial agonist activity under all conditions examined | activity in bone and the cardiovascular system [4]: functions as an estrogen | uterotrophic activity [4]: does not display uterotrophic activity

CC(=O)[C@H]1CC[C@H]2[C@@H]3CCC4=CC(=O)CC[C@]4(C)[C@H]3CC[C@]12C [progesterone]
binding pattern of the probes (fingerprint) compared with buffer [5]: indistinguishable from that produced by buffer

SSIKDFPNLISLLSR [Peptide #293]
disruption of ERα transcriptional activity [6]: did not interfere | interaction with ERβ [7]: selective interactions | interaction with RARα [8]: selective interactions | interaction with TRβ [9]: selective interactions | disruption of the transcriptional activation by ERβ [10]: strongly disrupted

SSEYCFYWDSAHCSR [α I]
binding to the full length protein [11]: binds only to the full length protein

SSYQWETHSDKWRSR
binding of ER in presence of estradiol [1]: weak binders
